B1: ABBV-011 (SC17 conjugated to the calicheamicin linker drug LD19.10) (antibody, V domains shown)
VH: EVQLVQSGAEVKKPGESLKISCKGSGYSFTSSWINWVRQMPGKGLEWMGRIYPGEGDTNYSGNFEGQVTISADKSISTAYLQWSSLKASDTAMYYCTRGLVMDYWGQGTLVTVSS
VL: EIVLTQSPATLSLSPGERATLSCRASQSVDYNGISYMHWYQQKPGQAPRLLIYAASNVQSGIPARFSGSGSGTDFTLTISSLEPEDFAVYYCQQSIEDPPTFGGGTKVEIK
B2: SC17, humanized anti-SEZ6 monoclonal antibody (antibody, V domains shown)
VH: B1 VH
VL: B1 VL

What was measured:
[1] = target: cynomolgus monkey SEZ6, ectopically expressed on 293T cells (Macaca fascicularis, UniProt A0A2K5WPJ4); assay: flow cytometry on cells
[2] = target: murine SEZ6, ectopically expressed on 293T cells (Mus musculus (Mouse)., UniProt Q7TSK2); assay: flow cytometry on cells
Sequence of murine SEZ6, ectopically expressed on 293T cells (Q7TSK2 20-991): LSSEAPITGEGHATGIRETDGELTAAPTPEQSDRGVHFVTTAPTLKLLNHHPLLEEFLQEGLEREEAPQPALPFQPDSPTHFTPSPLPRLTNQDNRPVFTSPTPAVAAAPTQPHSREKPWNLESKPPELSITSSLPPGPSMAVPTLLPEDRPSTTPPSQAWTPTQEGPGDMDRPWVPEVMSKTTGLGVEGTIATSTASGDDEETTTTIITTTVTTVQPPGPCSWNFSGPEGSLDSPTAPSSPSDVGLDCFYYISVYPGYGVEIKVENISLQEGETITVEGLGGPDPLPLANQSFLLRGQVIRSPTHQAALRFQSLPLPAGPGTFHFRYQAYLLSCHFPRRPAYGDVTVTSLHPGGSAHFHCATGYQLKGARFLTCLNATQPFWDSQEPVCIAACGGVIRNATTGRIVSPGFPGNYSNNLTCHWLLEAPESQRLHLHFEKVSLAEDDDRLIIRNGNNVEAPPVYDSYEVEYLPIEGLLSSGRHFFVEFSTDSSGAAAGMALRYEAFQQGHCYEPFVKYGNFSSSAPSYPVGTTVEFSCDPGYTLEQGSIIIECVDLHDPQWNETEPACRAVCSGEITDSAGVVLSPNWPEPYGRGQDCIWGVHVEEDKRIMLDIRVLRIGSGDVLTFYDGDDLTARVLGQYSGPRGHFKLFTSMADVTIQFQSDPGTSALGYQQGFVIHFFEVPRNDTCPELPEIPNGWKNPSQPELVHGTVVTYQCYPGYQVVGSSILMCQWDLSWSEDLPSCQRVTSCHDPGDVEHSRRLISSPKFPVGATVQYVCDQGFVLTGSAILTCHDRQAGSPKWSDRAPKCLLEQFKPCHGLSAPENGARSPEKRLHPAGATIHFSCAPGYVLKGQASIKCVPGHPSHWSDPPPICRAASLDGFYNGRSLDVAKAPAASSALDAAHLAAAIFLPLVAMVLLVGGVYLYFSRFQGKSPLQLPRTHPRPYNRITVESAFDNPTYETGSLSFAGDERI

Row | Binder | binding result [1] | binding result [2]
1 | B1 | binds | binds
2 | B2 | binds | –

From article PMC9381089 (Molecular Cancer Therapeutics, 2022)
